Measurements taken from the supplement of paper PMC11865577.

Experiments:
Test in all cases: pull-down binding Z-score (relative to library population); higher = stronger binding
Settings in all cases: RNA library: Library-2
TO-N3 (biotin conjugate) = tested on: TO-N3 (biotin conjugate)
In short: (§1)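 A heat-folded, dye-end-labelled (Cy5 or Cy3) RNA library (1 μg, phosphate/NaCl/KCl buffer) was exposed for 60 min at 25 °C to streptavidin beads holding 100 pmol of biotin-conjugated small molecule. RNA retained on the beads was eluted in hot SDS and hybridised to a DNA barcode microarray for 20 h at 55.5 °C. Binding scores were Z-scores against the library mean and standard deviation, calculated after subtracting beads alone and taking trimmed means of replicate probes.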

[1] = tested on: TO-N3-2 (biotin conjugate)
In short: as §1

[2] = tested on: TO-3-N3 (biotin conjugate)
In short: as §1

[3] = tested on: TO-3-N3-2 (biotin conjugate)
In short: as §1

Row | Sequence | pull-down binding Z-score (TO-N3 (biotin conjugate)) | pull-down binding Z-score [1] | pull-down binding Z-score [2] | pull-down binding Z-score [3]
1 | CUAUAGUAGCUGGUGGUAUUGUAGCUAUCGUAG [SHAPE_invitro_SARS-CoV-2_Motif_182] | 0.874 | 1.04 | 0.653 | 0.54
2 | CUAUCAGGCCGGUAG [DMSMaPseq_invitro_SARS-CoV-2_Motif_406] | -0.672 | -0.0779 | -0.61 | -0.579
3 | CUAUUCAAACAAUUGUUGAGGUUCAACCUCAAUUAGAGAUGGAACUUACACCAGUUGUUCAGACUAUUGAAGUGAAUAGUUUUAG [SHAPE_invivo_SARS-CoV-2_Multi_36_ComplexLevel_1] | -0.421 | -0.461 | -0.49 | -0.292
4 | CUCAAACCCGUCCUUGAUUGGCUUGAAGAGAAGUUUAAGGAAGGUGUAGAG [DMSMaPseq_invitro_SARS-CoV-2_Motif_41] | -0.455 | -0.0884 | -0.564 | -0.174
5 | CUCAGAGUAGAAAUUUACAAGAAUUUAAACCCAGGAG [DMSMaPseq_invitro_SARS-CoV-2_Motif_359] | -0.463 | -0.531 | -0.646 | -0.119
6 | CUCAGUCCAAGAUGGUAUUUCUACUACCUAGGAACUGGG [SHAPE_invivo_SARS-CoV-2_Motif_544] | -0.646 | -0.627 | -0.642 | -0.217
7 | CUCCAAAAAGAG | -1.21 | -1.2 | -0.901 | -0.675
8 | CUCCAGCACGGAG [IAV_invivo_PB2_1_Motif_21+IAV_invivo_PB2_1_Motif_21] | -0.877 | -1.17 | -0.457 | -0.425
9 | CUCCAGGAGGGG [IAV_invivo_PB2_1_Motif_10+IAV_invivo_PB2_1_Motif_10] | -0.668 | -0.309 | -0.481 | -0.312
10 | CUCCUUUGAUGGUUGCAUACAUGUUGGAG [IAV_invivo_PB2_1_Motif_8+IAV_invivo_PB2_1_Motif_8] | -0.689 | -0.427 | -0.359 | -0.208
11 | CUCGUCUAUCUUCUGCAGGCUGCUUACGGUUUCGUCCGUGUUGCAGCCGAUCAUCAGCACAUCUAGGUUUCGUCCGGGUGUGACCGAAAGGUAAGAUGGAGAG | -0.000928 | 0.408 | -0.0693 | -0.556
12 | CUCGUCUAUCUUCUGCAGGCUGCUUACGGUUUCGUCCGUGUUGCAGCCGAUCAUCAGCACAUCUAGGUUUUGUCCGGGUGUGACCGAAAGGUAAGAUGGAGAG | -0.836 | -0.32 | -0.827 | -0.563
13 | CUCUAUGACAAACUUGUUUCAAGCUUUUUGGAAAUGAAGAGUGAAAAGCAAGUUGAACAAAAGAUCGCUGAG | -0.314 | -0.00802 | -0.302 | -0.291
14 | CUCUCAUCGAUCUCCAAGAACUUGGAAAGUAUGAGCAG [SHAPE_invitro_SARS-CoV-2_Motif_456] | -0.095 | 0.281 | -0.197 | -0.286
15 | CUCUCAUUUUGUUAACUUAGACAACCUGAGAG | -1.13 | -1.2 | -0.827 | -0.35
16 | CUCUGGAACACUUUUACAAGACUUCAGAG [SHAPE_invivo_SARS-CoV-2_Motif_367] | -0.338 | -0.513 | -0.0115 | -0.651
17 | CUCUUGAGUGCAUUAAAGACCUUCUAGCACGUGCUGGUAAAGCUUCAUGCACUUUGUCCGAACAACUGGACUUUAUUGACACUAAGAG [SHAPE_invitro_SARS-CoV-2_Multi_69_ComplexLevel_1] | -0.515 | 0.585 | -0.706 | -0.197
18 | CUCUUGUAAUGUAAACAGAUUUAAUGUUGCUAUUACCAGAG | 0.0725 | -0.0897 | 0.0416 | -0.0635
19 | CUGAAAAAUGGGAAUCUGGAGUAAAAGACUGUGUUGUAUUACACAGUUACUUCACUUCAGACUAUUACCAG | -0.329 | -0.48 | -0.376 | -0.182
20 | CUGACAAAGUUUUCAG | 0.341 | -0.543 | 0.631 | -0.329
21 | CUGACUUAACAAAGCCUUACAUUAAGUGGGAUUUGUUAAAAUAUGACUUCACGGAAGAGAGGUUAAAACUCUUUGACCGUUAUUUUAAAUAUUGG | -0.517 | -0.193 | -0.707 | -0.143
22 | CUGAUCCUAGUUUUCUGGGUAG [SHAPE_invivo_SARS-CoV-2_Motif_108] | -0.0828 | -0.359 | -0.135 | -0.369

Row | Sequence | pull-down binding Z-score (TO-N3 (biotin conjugate)) | pull-down binding Z-score [1] | pull-down binding Z-score [2] | pull-down binding Z-score [3]
23 | CUGCACUGUUAGCGGGUACAAUCACUUCUGGUUGGACCUUUGGUGCAG [SHAPE_invitro_SARS-CoV-2_Motif_437] | -0.574 | -0.738 | -0.428 | -0.189
24 | CUGCAGAUGCAG [IAV_invivo_HA_4_Motif_2+IAV_invivo_HA_4_Motif_2] | -0.419 | -1.28 | -0.112 | -0.317
25 | CUGCCUAUAUGGAAG | -0.773 | -0.645 | -0.492 | -0.364
26 | CUGCUUUUGGCUUAGUUGCAG | 0.125 | -0.231 | 0.285 | 0.206
27 | CUGGAAUUGCCGUUUUAG [SHAPE_invivo_SARS-CoV-2_Motif_210] | -0.0237 | -0.115 | 0.0793 | -0.112
28 | CUGGACUCUAAAUAGAAACCAACCUGCUGCAACAGCAUUGGCCAACACAAUAGAAGUGUUCAGAUCAAAUGGCCUCACGGCCAAUGAGUCUGG | -0.231 | 0.269 | -0.791 | -0.486
29 | CUGGCAGUAACCAG [SHAPE_invivo_SARS-CoV-2_Motif_538] | -0.233 | -0.733 | -0.215 | -0.422
30 | CUGGGAAACUGUUAAAAUUCAGUGGUCCCAG [IAV_invivo_PB2_1_Motif_27+IAV_invivo_PB2_1_Motif_27] | -0.972 | -0.97 | -0.682 | -0.0981
31 | CUGGGCCAUAAGGACCAG [IAV_invivo_NP_5_Motif_20+IAV_invivo_NP_5_Motif_20] | -0.418 | -0.786 | -0.0792 | -0.477
32 | CUGGGGGCAAUCAGUUUCUGG [IAV_invivo_HA_4_Motif_20+IAV_invivo_HA_4_Motif_20] | 0.946 | -0.107 | 1.05 | -0.0228
33 | CUGGUCCAUGCUCAUACCCAAGCAGAAAGUGGCAGGCCCUCUUUGUAUCAGAAUGGACCAG [IAV_invivo_NS1_NEP_8_Motif_8+IAV_invivo_NS1_NEP_8_Motif_8] | -0.453 | 0.562 | -0.528 | -0.24
34 | CUGUAGCUGCAUUUCACCAAGAAUGUAGUUUACAG [DMSMaPseq_invitro_SARS-CoV-2_Motif_500] | 0.121 | -0.632 | 0.437 | -0.0203
35 | CUGUCACUAAG | -0.36 | -0.584 | -0.404 | -0.0755
36 | CUGUCAUGGAAGCAAGUACUGGCAG [IAV_invivo_PA_3_Motif_16+IAV_invivo_PA_3_Motif_16] | 0.596 | 0.323 | 0.591 | 0.12
37 | CUGUCCAAGACAUGUGAUCUGCACCUCUGAAGACAUGCUUAACCCUAAUUAUGAAGAUUUACUCAUUCGUAAGUCUAAUCAUAAUUUCUUGGUACAG | -0.347 | -0.0124 | -0.274 | -0.739
38 | CUGUGGGUUUUACACUUAAAAACACAG [DMSMaPseq_invitro_SARS-CoV-2_Motif_239] | -0.32 | -0.754 | -0.233 | -0.131
39 | CUGUUAAUGUAGCAUUUGAGCUUUGGGCUAAGCGCAACAUUAAACCAG | 0.38 | 0.335 | 0.0322 | -0.268
40 | CUGUUCCACCAUUGAAGAGCUCAG [IAV_invivo_PB1_2_Motif_38+IAV_invivo_PB1_2_Motif_38] | 0.134 | 0.457 | -0.372 | -0.178
41 | CUGUUGAUUCAUCACAG | 1.14 | -0.421 | 1.37 | 0.174
42 | CUGUUGGUACCAAUUUACCUUUACAGCUAGGUUUUUCUACAGGUGUUAACCUAGUUGCUGUACCUACAG | -1.16 | -1.02 | -0.959 | -0.514
43 | CUGUUUGGAUGACAG | -0.871 | -1.01 | -0.461 | -0.753
44 | CUGUUUUUCAG | -1.23 | -1.53 | -0.739 | -0.661

Row | Sequence | pull-down binding Z-score (TO-N3 (biotin conjugate)) | pull-down binding Z-score [1] | pull-down binding Z-score [2] | pull-down binding Z-score [3]
45 | CUUACUGACAAUGUAUACAUUAAAAAUGCAGACAUUGUGGAAG [DMSMaPseq_invitro_SARS-CoV-2_Motif_59] | -0.328 | -0.455 | -0.453 | -0.18
46 | CUUAGCUGUCUUUGAUAAAAAUCUCUAUGACAAACUUGUUUCAAGCUUUUUGGAAAUGAAGAGUGAAAAGCAAGUUGAACAAAAGAUCGCUGAG [SHAPE_invivo_SARS-CoV-2_Motif_73] | 0.0191 | 0.552 | 0.216 | 0.0166
47 | CUUAGGGACAACCUUGAACCUGGG [IAV_invivo_PA_3_Motif_29+IAV_invivo_PA_3_Motif_29] | -0.557 | 0.0467 | -0.637 | -0.446
48 | CUUAGUUUUAAG [DMSMaPseq_invitro_SARS-CoV-2_Motif_263] | -1.02 | -1.26 | -0.781 | -0.268
49 | CUUAUGUUGGUUGCCAUAACAAGUGUGCCUAUUGGGUUCCACGUGCUAGCGCUAACAUAGG | -1.11 | -0.75 | -1.06 | -0.751
50 | CUUCACAUAUGUAUUGUUCUUUUUACCCUCCAGAUGAGGAUGAAGAAGAAGGUGAUUGUGAAG | -0.606 | -1.19 | -0.494 | -0.0402
51 | CUUCAUUAAAAGAAUUACUGCAAAAUGGUAUGAAUGGACGUACCAUAUUGGGUAGUGCUUUAUUAGAAG | -0.621 | -0.219 | -0.675 | -0.0236
52 | CUUCCGAGUCAUAGGAAACUAUGACAUACAGAUCAACAGGGGCUCGCUUGAGCCCCCCAGCCAGUCGGAGG [mMTR1] | -1.09 | -0.704 | -0.97 | -0.458
53 | CUUCUGCUGCUCUUCAACCUGAAGAAGAGCAAGAAGAAG | -0.368 | -0.79 | -0.349 | -0.22
54 | CUUCUUGAAAUACUCCAAAAAGAGAAAGUCAACAUCAAUAUUGUUGGUGACUUUAAACUUAAUGAAG | -0.0282 | -0.596 | 0.115 | -0.0464
55 | CUUCUUGCAUGUGACUUAUGUCCCUGCACAAGAAAAG [SHAPE_invitro_SARS-CoV-2_Motif_449] | -0.309 | -0.177 | -0.329 | -0.257
56 | CUUGAACAAUGGAACCUAGUAAUAGGUUUCCUAUUCCUUACAUGGAUUUGUCUUCUACAAUUUGCCUAUGCCAACAGG | -0.466 | -0.374 | -0.5 | -0.181
57 | CUUGAACAAUGGAACCUAGUAAUAGGUUUCCUAUUCCUUACAUGGAUUUGUCUUCUACAAUUUGCCUAUGCCAACAGGAAUAGGUUUUUGUAUAUAAUUAAG | -1.12 | -1.14 | -0.828 | -0.369
58 | CUUGAUGAUUUUGUUGAAAUAAUAAAAUCCCAAG | -0.636 | -0.743 | -0.466 | -0.266
59 | CUUGGAAAACUUCAAG | -0.471 | -0.863 | -0.101 | -0.265
60 | CUUUACCAACCACCACAAACCUCUAUCACCUCAGCUGUUUUGCAGAGUGGUUUUAGAAAAAUGGCAUUCCCAUCUGGUAAAG | -0.0807 | -0.0806 | -0.0485 | 0.13
61 | CUUUAGUAAUUACCUAAAGAGACGUGUAGUCUUUAAUGGUGUUUCCUUUAG | -1.09 | -1.17 | -0.924 | -0.575
62 | CUUUAUUAGAAG [DMSMaPseq_invitro_SARS-CoV-2_Motif_195] | -0.39 | -0.806 | -0.165 | -0.21
63 | CUUUGAUAAAGCUGGUCAAAAGACUUAUGAAAG | -0.947 | -0.816 | -0.814 | -0.4
64 | CUUUGUAUUGCAUAGACGGUGCUUUACUUACAAAGUCCUCAGAAUACAAAG | -1.28 | -1.1 | -0.811 | -0.719
